# Numbering of substitutions follows the chain as printed.
# T1: human α-CGRP 1-37 (WT) (human, C-terminal amide; N-terminal biotin when captured on the SA chip; 125I-labelled in the radioligand assay)
# T1 construct: also called α-human
# T1 peptide: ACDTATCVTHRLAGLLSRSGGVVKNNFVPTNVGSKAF
# T2: rat α-CGRP (1-37) (rat, C-terminal amide; N-terminal biotin when captured on the SA chip)
# T2 construct: also called rat α (1-37); α-rat
# T2 peptide: T1 peptide with A1S, D3N, N25D, K35E
# B1: G1 variant M1 Fab (Fab, V domains shown)
# VH: EVQLVESGGGLVQPGGSLRLSCAASGFTFSNYWISWVRQAPGKGLEWVAEIRSESDASATHYAEAVKGRFTISRDNAKNSLYLQMNSLRAEDTAVYYCLLYFDYGLAIQNYWGQGTLVTVSS
# VL: EIVLTQSPATLSLSPGERATLSCKASKRVTTYVSWYQQKPGQAPRLLIYGASNRYLGIPARFSGSGSGTDFTLTISSLEPEDFAVYYCSQSYNYPYTFGQGTKLEIK
# notes: Fab; constant domains as m1
# B2: G1 variant M25 Fab (Fab, V domains shown)
# VH: B1 VH with L99T, L100V
# VL: B1 VL with R28N
# notes: Fab; constant domains as m1
# B3: G1 variant M28 Fab (Fab, V domains shown)
# VH: B1 VH with E54R, A57N, L99T, L100V
# VL: B1 VL with R28N, T30D
# notes: Fab; constant domains as m1
# B4: G1 variant M17 Fab (Fab, V domains shown)
# VH: B1 VH with L99T, L100V
# VL: B1 VL
# notes: Fab; constant domains as m1
# B5: G1 variant M9 Fab (Fab, V domains shown)
# VH: B1 VH with L99N, L100Y
# VL: B1 VL
# notes: Fab; constant domains as m1
# B6: G1 variant M22 Fab (Fab, V domains shown)
# VH: B1 VH with L99T, L100A
# VL: B1 VL with R28W
# notes: Fab; constant domains as m1
# B7: G1 variant M32 Fab (Fab, V domains shown)
# VH: B1 VH with E54K, A57H, L99T, L100V
# VL: B1 VL with R28N, T30G
# notes: Fab; constant domains as m1
# B8: G1 variant M7 Fab (Fab, V domains shown)
# VH: B1 VH with L99N, L100C
# VL: B1 VL
# notes: Fab; constant domains as m1
# B9: G1 variant M5 Fab (Fab, V domains shown)
# VH: B1 VH with L99A, L100Y
# VL: B1 VL
# notes: Fab; constant domains as m1
# B10: G1 variant M24 Fab (Fab, V domains shown)
# VH: B1 VH with L99T, L100V
# VL: B1 VL with R28L
# notes: Fab; constant domains as m1
# B11: G1 variant M29 Fab (Fab, V domains shown)
# VH: B1 VH with L99T, L100V
# VL: B1 VL with R28N, T30G
# notes: Fab; constant domains as m1
# B12: G1 variant M15 Fab (Fab, V domains shown)
# VH: B1 VH with L99T, L100P
# VL: B1 VL
# notes: Fab; constant domains as m1
# B13: G1 variant M14 Fab (Fab, V domains shown)
# VH: B1 VH with L99T, L100K
# VL: B1 VL
# notes: Fab; constant domains as m1
# B14: G1 variant M3 Fab (Fab, V domains shown)
# VH: B1 VH with L99A, L100S
# VL: B1 VL
# notes: Fab; constant domains as m1
# B15: G1 variant M2 Fab (Fab, V domains shown)
# VH: B1 VH with L99A, L100R
# VL: B1 VL
# notes: Fab; constant domains as m1
# B16: G1 variant M20 Fab (Fab, V domains shown)
# VH: B1 VH with L99R
# VL: B1 VL with R28W
# notes: Fab; constant domains as m1
# B17: G1 variant M10 Fab (Fab, V domains shown)
# VH: B1 VH with L99S, L100S
# VL: B1 VL
# notes: Fab; constant domains as m1
# B18: G1 variant M33 Fab (Fab, V domains shown)
# VH: B1 VH with E54K, A57N, S58G, L99T, L100V
# VL: B1 VL with R28N, T30G
# notes: Fab; constant domains as m1
# B19: G1 variant M16 Fab (Fab, V domains shown)
# VH: B1 VH with L99T, L100S
# VL: B1 VL
# notes: Fab; constant domains as m1
# B20: G1 variant M23 Fab (Fab, V domains shown)
# VH: B1 VH with L99T, L100V
# VL: B1 VL with R28G
# notes: Fab; constant domains as m1
# B21: G1 variant M19 Fab (Fab, V domains shown)
# VH: B1 VH with L99V, L100R
# VL: B1 VL
# notes: Fab; constant domains as m1
# B22: G1 variant M4 Fab (Fab, V domains shown)
# VH: B1 VH with L99A, L100V
# VL: B1 VL
# notes: Fab; constant domains as m1
# B23: G1 variant M18 Fab (Fab, V domains shown)
# VH: B1 VH with L99V, L100G
# VL: B1 VL
# notes: Fab; constant domains as m1
# B24: G1 variant M21 Fab (Fab, V domains shown)
# VH: B1 VH with L99S, L100A
# VL: B1 VL with R28W
# notes: Fab; constant domains as m1
# B25: G1 variant M13 Fab (Fab, V domains shown)
# VH: B1 VH with L99T, L100G
# VL: B1 VL
# notes: Fab; constant domains as m1
# B26: G1 variant M12 Fab (Fab, V domains shown)
# VH: B1 VH with L99S, L100V
# VL: B1 VL
# notes: Fab; constant domains as m1
# B27: G1 variant M27 Fab (Fab, V domains shown)
# VH: B1 VH with L99T, L100V
# VL: B1 VL with R28N, T30A
# notes: Fab; constant domains as m1
# B28: G1 variant M6 Fab (Fab, V domains shown)
# VH: B1 VH with L99N, L100A
# VL: B1 VL
# notes: Fab; constant domains as m1
# B29: G1 variant M26 Fab (Fab, V domains shown)
# VH: B1 VH with A57G, L99T, L100V
# VL: B1 VL with R28N
# notes: Fab; constant domains as m1
# B30: G1 variant M11 Fab (Fab, V domains shown)
# VH: B1 VH with L99S, L100T
# VL: B1 VL
# notes: Fab; constant domains as m1
# B31: G1 variant M31 Fab (Fab, V domains shown)
# VH: B1 VH with E54K, A57G, L99T, L100V
# VL: B1 VL with R28N, T30G
# notes: Fab; constant domains as m1
# B32: G1 variant M8 Fab (Fab, V domains shown)
# VH: B1 VH with L99N, L100G
# VL: B1 VL
# notes: Fab; constant domains as m1
# B33: G1 variant M30 Fab (Fab, V domains shown)
# VH: B1 VH with E54K, A57E, L99T, L100V
# VL: B1 VL with R28N, T30G
# notes: Fab; constant domains as m1
# Target: T1, human α-CGRP 1-37 (WT)
# Test: Biacore, 37°C, Fab over CGRP on SA chip
# Method: (§1) Biacore assay for affinity determination. […] All Biacore assays were conducted in HBS-EP running buffer (10 mM HEPES pH 7.4, 150 mM NaCl, 3 mM EDTA, 0.005% v/v polysorbate P20). CGRP surfaces were prepared by diluting the N-biotinylated CGRP to a concentration of less than 0.001 mg/mL into HBS-EP buffer and injecting it across the SA sensor chip using variable contact times. […] Samples were typically injected for 1 minute at 100 μL/min and dissociation times of at least 10 minutes were allowed. […] An entire titration series (typically generated in duplicate) was fit globally to a 1:1 Langmuir binding model using the BIAevaluation program. This returned a unique pair of association and dissociation kinetic rate constants (respectively, kₒₙ and koff) for each binding interaction, whose ratio gave the equilibrium dissociation constant (KD=koff/kₒₙ). […]
koff [s⁻¹],Kd [nM],Binder
0.000173,,B1
0.00014,1.3,B2
9.96e-05,0.62,B3
0.000185,1.16,B4
≤ 1e-05,≤ 0.06,B5
0.000116,0.73,B6
0.000271,1.69,B7
0.000243,1.52,B8
3.22e-05,0.2,B9
0.000148,0.93,B10
0.00038,2.38,B11
1.58e-05,0.1,B12
≤ 1e-05,≤ 0.06,B13
0.00021,1.7,B14
0.00031,3,B15
0.000136,0.85,B16
0.000173,1.08,B17

koff [s⁻¹],Kd [nM],Binder
0.00075,4.69,B18
0.000165,1.03,B19
0.00013,0.81,B20
≤ 1e-05,≤ 0.06,B21
6.95e-05,0.43,B22
7.03e-05,0.44,B23
0.000142,1.23,B24
0.000186,1.16,B25
0.000101,0.63,B26
0.000357,2.23,B27
0.000133,0.83,B28
0.000148,0.93,B29
0.000283,1.77,B30
0.000347,2.17,B31
9.2e-05,0.58,B32
0.00059,3.69,B33

# Target: T2, rat α-CGRP (1-37)
# Test: Biacore, 37°C, Fab over CGRP on SA chip
# Method: as §1
koff [s⁻¹],Kd [nM],Binder
0.0011,,B1
0.0014,76,B2
0.00125,69.4,B3
0.00206,114,B4
0.0011,61.1,B6
0.00296,164,B7
0.000918,51,B8
0.000735,40.8,B9
0.00104,57.8,B10
0.00359,199,B11
0.00115,63.9,B12
0.002,61,B14
0.0026,58,B15
0.00144,80,B16
0.00151,83.9,B17
0.00922,512,B18
0.000996,55.3,B19
0.000799,44.4,B20
0.00152,84.4,B22
0.00122,67.8,B23
0.000695,15.2,B24
0.00184,102,B25
0.00194,108,B26
0.00341,189,B27
0.000784,43.6,B28
0.000924,51.3,B29
0.00483,268,B30
0.00361,201,B31
0.000745,41.4,B32
0.00638,354,B33

# Reference: patent US20190071490A1 (BETH ISRAEL DEACONESS MEDICAL CENTER, published 2019)
